Data set [1] is described as follows: anti-V5 Western blot of CHO cell lysates, GAPDH-normalised. The following applies: glycan lost; control: WT WIF1-V5-His. For orientation: A western blot detects proteins with antibodies after separation by electrophoresis.
Data set [2] is described as follows: anti-V5 Western blot of CHO conditioned media. The following applies: glycan lost; control: WT WIF1-V5-His.

B1: WIF1 (Wnt Inhibitory Factor 1): T255A (protein)
parent chain: MARRRAFPAFALRLWSILPCLLLLRADAGQPPEESLYLWIDAHQARVLIGFEEDILIVSEGKMAPFTHDFRKAQQRMPAIPVNIHSMNFTWQAAGQAEYFYEFLSLRSLDKGIMADPTVNVPLLGTVPHKASVVQVGFPCLGKQDGVAAFEVNVIVMNSEGNTILRTPQNAIFFKTCQQAECPGGCRNGGFCNERRVCECPDGFYGPHCEKALCIPRCMNGGLCVTPGFCICPPGFYGVNCDKANCSTTCFNGGTCFYPGKCICPPGLEGEQCELSKCPQPCRNGGKCIGKSKCKCPKGYQGDLCSKPVCEPGCGAHGTCHEPNKCQCREGWHGRHCNKRYGASLMHAPRPAGAGLERHTPSLKKAEDRRDPPESNYIW
As to B1, in data set [1], the localisation_or_trafficking entry was “increases”. In data set [2], the “expression_or_secretion, percent_of_wt” value was “decreases, decrease of more than 50% vs 100”.

B2: WIF1 (Wnt Inhibitory Factor 1): T255/319A (protein)
parent chain: B1 parent chain
With B2, the localisation_or_trafficking result in data set [1] is listed as “increases”. Moreover, in data set [2], the “expression_or_secretion, percent_of_wt” value was “decreases, decrease of more than 50% vs 100”.

These data come from article PMC7565927.
